Assay results taken from patent US20140087995A1 (published 2014).
Where a chain is given by its changes, count along the chain named. Blank lines part the entries; values can stand above or below the binder they belong to. Numbered stars: 1 amine (or outer) side, 2 acyl side, 3 side chain; on linkers, the order of the positions; unused ones are H or OH. Bridge positions count the residues as written; N and C are the ends. Side chains are listed from the residue outwards. Ends that are not written are not given here. * marks the point of attachment. C20 diacid = O=C(O)CCCCCCCCCCCCCCCCCCC(=O)*; γGlu = O=C(O)[C@H](CCC(=O)[*:2])N[*:1]; AEEA = NCCOCCOCC(=O)O

Target: T1, human amylin receptor (human, UniProt P30988 25-474; O60896 24-148, limits assumed)
T1 construct: whole, on cells; Used as cell membranes prepared from the Amylin 3(a)/CRE-luc BHK cells (Assay V); also called hAmylin-R; hAmylinR
T1 sequence (looked up) 1: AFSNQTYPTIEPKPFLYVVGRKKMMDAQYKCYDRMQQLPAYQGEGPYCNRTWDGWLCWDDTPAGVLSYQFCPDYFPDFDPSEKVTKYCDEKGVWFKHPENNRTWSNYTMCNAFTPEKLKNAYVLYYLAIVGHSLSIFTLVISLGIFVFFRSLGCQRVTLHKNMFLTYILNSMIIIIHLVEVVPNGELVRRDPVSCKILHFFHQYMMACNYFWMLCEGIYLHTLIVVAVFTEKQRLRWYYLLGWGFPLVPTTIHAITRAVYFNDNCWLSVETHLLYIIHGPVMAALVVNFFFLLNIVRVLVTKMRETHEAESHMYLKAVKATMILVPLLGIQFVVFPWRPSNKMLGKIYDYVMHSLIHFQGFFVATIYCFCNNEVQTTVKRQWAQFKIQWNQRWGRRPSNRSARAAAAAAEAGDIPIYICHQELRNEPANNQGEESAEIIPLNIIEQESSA
T1 sequence (looked up) 2: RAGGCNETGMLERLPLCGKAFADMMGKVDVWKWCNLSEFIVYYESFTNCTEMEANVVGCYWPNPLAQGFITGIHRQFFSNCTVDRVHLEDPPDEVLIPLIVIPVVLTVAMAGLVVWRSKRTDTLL
Assay: SPA competition vs 125I-rat amylin, membranes of amylin 3(a) receptor BHK cells (Assay V)
Description: The binding assay was performed using scintillation proximity assay (SPA) beads (RPNQ0001) from PerkinElmer and cell membranes from the Amylin 3(a)/CRE-luc cells (as described in Assay (II)) were used. Membranes were prepared in the following way; the cells were rinsed with PBS and incubated with Versene for approximately 5 min before harvesting. The cells were flushed with PBS and the cell-suspension was centrifuged for 5 min at 1000 rpm. Cells were homogenized (ultrathurrax) in a buffer containing 20 mM Na-HEPES and 10 mM EDTA (pH 7.4) and centrifuged at 20.000 rpm for 15 min. The resulting pellet was resuspended, homogenized and centrifuged (20.000 rpm, 15 min) in a buffer containing 20 mM Na-HEPES and 0.1 mM EDTA (pH 7.4, buffer 2). The resulting pellet was resuspended in buffer 2 and protein concentration was measured (BCA protein Assay, Pierce). The homogenate was kept cold during the whole procedure. The membranes were kept at −80° C. until use. The assay was performed in a 384 well Optiplate (PerkinElmer) in a total volume of 40 ul. Membranes were mixed with SPA beads. Final concentration of membranes 35 ng/μL final and SPA beads was 0.05 mg/well. Test-compounds were dissolved in DMSO and further diluted in assay buffer (50 mM Hepes, pH 7.4, 1 mM CaCl2, 5 mM MgCl₂, 0.1% OA and 0.02% Tween20). […] The final mixture was incubated with shaking at 400 rpm for 120 min at 25° C. prior to centrifugation (1500 rpm, 10 min). Samples were analyzed on TopCounter™ (Packard). The IC₅₀ was calculated using (one site binding competition analysis) GraphPad Prism5 as a measure of receptor affinity.

B1: N^α1-[(4S)-4-carboxy-4-(19-carboxynonadecanoylamino)butanoyl]-[Arg17,Pro21,Pro27,Arg34]-h-amylin (peptide)
peptide: KCNTATCATQRLANFLRHSSPNFGAIPSSTNVGRNTY
modifications: C20 diacid-gGlu on alpha amino group of the N-terminal residue; Cys2-Cys7 disulfide and C-terminal amide as in h-amylin
notes: also called compound 39
- IC50: 0.665 nM

B2: N^ε1-[2-[2-[2-[[2-[2-[2-[[(4S)-4-carboxy-4-(19-carboxynonadecanoylamino)butanoyl]amino]ethoxy]ethoxy]acetyl]amino]ethoxy]ethoxy]acetyl]-[Arg17,Pro21,Pro27,Glu35 … (peptide)
peptide: K([AEEA-AEEA-γGlu-C20 diacid])CNTATCATQRLANFLRHSSPNFGAIPSSTNVGSETY-NH2
modifications: disulfide 2-7; N-terminus assumed
SMILES: CC[C@H](C)[C@H](NC(=O)[C@H](C)NC(=O)CNC(=O)[C@H](Cc1ccccc1)NC(=O)[C@H](CC(N)=O)NC(=O)[C@@H]1CCCN1C(=O)[C@H](CO)NC(=O)[C@H](CO)NC(=O)[C@H](Cc1c[nH]cn1)NC(=O)[C@H](CCCNC(=N)N)NC(=O)[C@H](CC(C)C)NC(=O)[C@H](Cc1ccccc1)NC(=O)[C@H](CC(N)=O)NC(=O)[C@H](C)NC(=O)[C@H](CC(C)C)NC(=O)[C@H](CCCNC(=N)N)NC(=O)[C@H](CCC(N)=O)NC(=O)[C@@H](NC(=O)[C@H](C)NC(=O)[C@@H]1CSSC[C@H](NC(=O)[C@@H](N)CCCCNC(=O)COCCOCCNC(=O)COCCOCCNC(=O)CC[C@H](NC(=O)CCCCCCCCCCCCCCCCCCC(=O)O)C(=O)O)C(=O)N[C@@H](CC(N)=O)C(=O)N[C@@H]([C@@H](C)O)C(=O)N[C@@H](C)C(=O)N[C@@H]([C@@H](C)O)C(=O)N1)[C@@H](C)O)C(=O)N1CCC[C@H]1C(=O)N[C@@H](CO)C(=O)N[C@@H](CO)C(=O)N[C@H](C(=O)N[C@@H](CC(N)=O)C(=O)N[C@H](C(=O)NCC(=O)N[C@@H](CO)C(=O)N[C@@H](CCC(=O)O)C(=O)N[C@H](C(=O)N[C@@H](Cc1ccc(O)cc1)C(N)=O)[C@@H](C)O)C(C)C)[C@@H](C)O
notes: also called compound 25
- IC50: 0.768 nM

B3: N^α1-[(4S)-4-carboxy-4-(19-carboxynonadecanoylamino)butanoyl]-[Arg17,Pro21,Pro27,Pro31,Glu35]-h-amylin (peptide)
peptide: {C20 diacid-γGlu}-KCNTATCATQRLANFLRHSSPNFGAIPSSTPVGSETY-NH2
modifications: disulfide 2-7
SMILES: CC[C@H](C)[C@H](NC(=O)[C@H](C)NC(=O)CNC(=O)[C@H](Cc1ccccc1)NC(=O)[C@H](CC(N)=O)NC(=O)[C@@H]1CCCN1C(=O)[C@H](CO)NC(=O)[C@H](CO)NC(=O)[C@H](Cc1c[nH]cn1)NC(=O)[C@H](CCCNC(=N)N)NC(=O)[C@H](CC(C)C)NC(=O)[C@H](Cc1ccccc1)NC(=O)[C@H](CC(N)=O)NC(=O)[C@H](C)NC(=O)[C@H](CC(C)C)NC(=O)[C@H](CCCNC(=N)N)NC(=O)[C@H](CCC(N)=O)NC(=O)[C@@H](NC(=O)[C@H](C)NC(=O)[C@@H]1CSSC[C@H](NC(=O)[C@H](CCCCN)NC(=O)CC[C@H](NC(=O)CCCCCCCCCCCCCCCCCCC(=O)O)C(=O)O)C(=O)N[C@@H](CC(N)=O)C(=O)N[C@@H]([C@@H](C)O)C(=O)N[C@@H](C)C(=O)N[C@@H]([C@@H](C)O)C(=O)N1)[C@@H](C)O)C(=O)N1CCC[C@H]1C(=O)N[C@@H](CO)C(=O)N[C@@H](CO)C(=O)N[C@H](C(=O)N1CCC[C@H]1C(=O)N[C@H](C(=O)NCC(=O)N[C@@H](CO)C(=O)N[C@@H](CCC(=O)O)C(=O)N[C@H](C(=O)N[C@@H](Cc1ccc(O)cc1)C(N)=O)[C@@H](C)O)C(C)C)[C@@H](C)O
notes: also called compound 28
- IC50: 0.61 nM

B6: N^α1-[(4S)-4-carboxy-4-(19-carboxynonadecanoylamino)butanoyl]-[Arg17,Pro21,Pro27,His34]-h-amylin (peptide)
peptide: B1 peptide with R34H
modifications: C20 diacid-gGlu on alpha amino group of the N-terminal residue; Cys2-Cys7 disulfide and C-terminal amide as in h-amylin
notes: also called compound 40
- IC50: 0.549 nM

B8: N^α1-[(4S)-4-carboxy-4-(19-carboxynonadecanoylamino)butanoyl]-[Arg17,Pro21,Pro27,Glu35]-h-amylin (peptide)
peptide: B1 peptide with R34S, N35E
modifications: C20 diacid-gGlu on alpha amino group of the N-terminal residue; Cys2-Cys7 disulfide and C-terminal amide as in h-amylin
notes: also called compound 23
- IC50: 0.871 nM

Further lines, results first:

- IC50: 0.919 nM
B4: N^α1-[(4S)-4-carboxy-4-(19-carboxynonadecanoylamino)butanoyl]-[His14,Arg17,Pro21,Pro27,Glu35]-h-amylin (peptide)
peptide: {C20 diacid-γGlu}-KCNTATCATQRLAHFLRHSSPNFGAIPSSTNVGSETY-NH2
modifications: disulfide 2-7
SMILES: CC[C@H](C)[C@H](NC(=O)[C@H](C)NC(=O)CNC(=O)[C@H](Cc1ccccc1)NC(=O)[C@H](CC(N)=O)NC(=O)[C@@H]1CCCN1C(=O)[C@H](CO)NC(=O)[C@H](CO)NC(=O)[C@H](Cc1c[nH]cn1)NC(=O)[C@H](CCCNC(=N)N)NC(=O)[C@H](CC(C)C)NC(=O)[C@H](Cc1ccccc1)NC(=O)[C@H](Cc1c[nH]cn1)NC(=O)[C@H](C)NC(=O)[C@H](CC(C)C)NC(=O)[C@H](CCCNC(=N)N)NC(=O)[C@H](CCC(N)=O)NC(=O)[C@@H](NC(=O)[C@H](C)NC(=O)[C@@H]1CSSC[C@H](NC(=O)[C@H](CCCCN)NC(=O)CC[C@H](NC(=O)CCCCCCCCCCCCCCCCCCC(=O)O)C(=O)O)C(=O)N[C@@H](CC(N)=O)C(=O)N[C@@H]([C@@H](C)O)C(=O)N[C@@H](C)C(=O)N[C@@H]([C@@H](C)O)C(=O)N1)[C@@H](C)O)C(=O)N1CCC[C@H]1C(=O)N[C@@H](CO)C(=O)N[C@@H](CO)C(=O)N[C@H](C(=O)N[C@@H](CC(N)=O)C(=O)N[C@H](C(=O)NCC(=O)N[C@@H](CO)C(=O)N[C@@H](CCC(=O)O)C(=O)N[C@H](C(=O)N[C@@H](Cc1ccc(O)cc1)C(N)=O)[C@@H](C)O)C(C)C)[C@@H](C)O
notes: also called compound 30

- IC50: 0.894 nM
B5: N^α1-[(4S)-4-carboxy-4-(19-carboxynonadecanoylamino)butanoyl]-[Glu14,Arg17,Pro21,Pro27,Arg35]-h-amylin (peptide)
peptide: {C20 diacid-γGlu}-KCNTATCATQRLAEFLRHSSPNFGAIPSSTNVGSRTY-NH2
modifications: disulfide 2-7
SMILES: CC[C@H](C)[C@H](NC(=O)[C@H](C)NC(=O)CNC(=O)[C@H](Cc1ccccc1)NC(=O)[C@H](CC(N)=O)NC(=O)[C@@H]1CCCN1C(=O)[C@H](CO)NC(=O)[C@H](CO)NC(=O)[C@H](Cc1c[nH]cn1)NC(=O)[C@H](CCCNC(=N)N)NC(=O)[C@H](CC(C)C)NC(=O)[C@H](Cc1ccccc1)NC(=O)[C@H](CCC(=O)O)NC(=O)[C@H](C)NC(=O)[C@H](CC(C)C)NC(=O)[C@H](CCCNC(=N)N)NC(=O)[C@H](CCC(N)=O)NC(=O)[C@@H](NC(=O)[C@H](C)NC(=O)[C@@H]1CSSC[C@H](NC(=O)[C@H](CCCCN)NC(=O)CC[C@H](NC(=O)CCCCCCCCCCCCCCCCCCC(=O)O)C(=O)O)C(=O)N[C@@H](CC(N)=O)C(=O)N[C@@H]([C@@H](C)O)C(=O)N[C@@H](C)C(=O)N[C@@H]([C@@H](C)O)C(=O)N1)[C@@H](C)O)C(=O)N1CCC[C@H]1C(=O)N[C@@H](CO)C(=O)N[C@@H](CO)C(=O)N[C@H](C(=O)N[C@@H](CC(N)=O)C(=O)N[C@H](C(=O)NCC(=O)N[C@@H](CO)C(=O)N[C@@H](CCCNC(=N)N)C(=O)N[C@H](C(=O)N[C@@H](Cc1ccc(O)cc1)C(N)=O)[C@@H](C)O)C(C)C)[C@@H](C)O
notes: also called compound 16

- IC50: 0.204 nM
B7: N^α1-[(4S)-4-carboxy-4-(19-carboxynonadecanoylamino)butanoyl]-[Glu14,Arg17,Pro21,Pro27,Pro31]-h-amylin (peptide)
peptide: {C20 diacid-γGlu}-KCNTATCATQRLAEFLRHSSPNFGAIPSSTPVGSNTY-NH2
modifications: disulfide 2-7
SMILES: CC[C@H](C)[C@H](NC(=O)[C@H](C)NC(=O)CNC(=O)[C@H](Cc1ccccc1)NC(=O)[C@H](CC(N)=O)NC(=O)[C@@H]1CCCN1C(=O)[C@H](CO)NC(=O)[C@H](CO)NC(=O)[C@H](Cc1c[nH]cn1)NC(=O)[C@H](CCCNC(=N)N)NC(=O)[C@H](CC(C)C)NC(=O)[C@H](Cc1ccccc1)NC(=O)[C@H](CCC(=O)O)NC(=O)[C@H](C)NC(=O)[C@H](CC(C)C)NC(=O)[C@H](CCCNC(=N)N)NC(=O)[C@H](CCC(N)=O)NC(=O)[C@@H](NC(=O)[C@H](C)NC(=O)[C@@H]1CSSC[C@H](NC(=O)[C@H](CCCCN)NC(=O)CC[C@H](NC(=O)CCCCCCCCCCCCCCCCCCC(=O)O)C(=O)O)C(=O)N[C@@H](CC(N)=O)C(=O)N[C@@H]([C@@H](C)O)C(=O)N[C@@H](C)C(=O)N[C@@H]([C@@H](C)O)C(=O)N1)[C@@H](C)O)C(=O)N1CCC[C@H]1C(=O)N[C@@H](CO)C(=O)N[C@@H](CO)C(=O)N[C@H](C(=O)N1CCC[C@H]1C(=O)N[C@H](C(=O)NCC(=O)N[C@@H](CO)C(=O)N[C@@H](CC(N)=O)C(=O)N[C@H](C(=O)N[C@@H](Cc1ccc(O)cc1)C(N)=O)[C@@H](C)O)C(C)C)[C@@H](C)O
notes: also called compound 31
